In patent US20190381184A1:

Key:
CXCL12 [1] = test: Bio-Layer Interferometry, CXCL12 immobilized on the AR2G biosensor, CXCL12 trap at 500, 250 and 125 nM
CXCL12 [2] = test: Bio-Layer Interferometry; CXCL12 immobilized on AR2G biosensor, different concentrations of CXCL12 trap
CXCL12 [3] = test: Bio-Layer Interferometry (BLI)
CXCL12 [4] = test: cell-based or functional assay

Kd (CXCL12 [1]): 4.1 nM
koff (CXCL12 [1]): 3.64e-05 s⁻¹
kon (CXCL12 [1]): 8850 M⁻¹ s⁻¹
Kd (CXCL12 [2]): 4 nM
Kd (CXCL12 [3]): 4 nM
invasion of CT-26 FL3 cells stimulated with CXCL12 (100.0 ng/ml) (CXCL12 [4]): 12 µg/mL
migration of CT-26 FL3 cells stimulated with CXCL12 (100.0 ng/ml) (CXCL12 [4]): 8 µg/mL
one-half maximal inhibition [ND50] against biological active CXCL12 (100 ng/ml) in vitro (CXCL12 [4]): 120 nM
one-half maximal inhibition [ND50] of CT-26 FL3 cell migration stimulated with CXCL12 (100 ng/ml) (CXCL12 [4]): 120 nM
B1: CXCL12 trap (engineered VH-linker-VL fusion protein, expressed in and purified from 293T cells) (scFv, V domains shown, not shown: small tags and cut ends)
VH: EVQLVESGGGLVQPGGSLRLSCAASGFSLTVYSVHWVRQAPGKGLEWVGALWGSGGTEYNSNLKSRFTISRDTSKNTVYLQMNSLRAEDTAVYYCARDQGLNYGSLFDYWGQGTLVTVSS
VL: DIQMTQSPSSLSASVGDRVTITCRASESISYSLSWYQQKPGKAPKLLIYNAVKLESGVPSRFSGSGSGTDFTLTISSLQPEDFATYYCKQYWNTPFTFGQGTKVEIKR
modifications: flexible linker; C-terminal E tag, His6 tag
